Source: article PMC2790002

Substrate: CCCC(=O)SCC[N+](C)(C)C
Assay: purified protein
Assay type: biochemical, Homo sapiens
Conditions: 24 °C, 317 pM enzyme, 0.1 mM DTNB, 0.005-3 mM substrate

B1: human butyrylcholinesterase (Homo sapiens) (protein)
chain: EDDIIIATKNGKVRGMNLTVFGGTVTAFLGIPYAQPPLGRLRFKKPQSLTKWSDIWNATKYANSCCQNIDQSFPGFHGSEMWNPNTDLSEDCLYLNVWIPAPKPKNATVLIWIYGGGFQTGTSSLHVYDGKFLARVERVIVVSMNYRVGALGFLALPGNPEAPGNMGLFDQQLALQWVQKNIAAFGGNPKSVTLFGESAGAASVSLHLLSPGSHSLFTRAILQSGSFNAPWAVTSLYEARNRTLNLAKLTGCSRENETEIIKCLRNKDPQEILLNEAFVVPYGTPLSVNFGPTVDGDFLTDMPDILLELGQFKKTQILVGVNKDEGTAFLVYGAPGFSKDNNSIITRKEFQEGLKIFFPGVSEFGKESILFHYTDWVDDQRPENYREALGDVVGDYNFICPALEFTKKFSEWGNNAFFYYFEHRSSKLPWPEWMGVMHGYEIEFVFGLPLERRDNYTKAEEILSRSIVKRWANFAKYGNPNETQNNSTSWPVFKSTEQKYLTLNTESTRIMTKLRAQQCRFWTSFFPKVLEMTGNIDEAEWEWKAGFHRWNNYMMDWKNQFNDYTSKKESCVGL
  Km: 100 µM
